US20230190867A1 (BIOINCEPT, published 2023)
No end group written: not given here.

Key:
[1] = biological target: T1, Elongation factor 1-alpha 1 (human, UniProt P68104 2-462); assay: PIF-agarose affinity extraction, liver lysate column of Table 4 (row 'Eef1a1')
T1 construct: also called Eef1a1
T1 sequence (looked up): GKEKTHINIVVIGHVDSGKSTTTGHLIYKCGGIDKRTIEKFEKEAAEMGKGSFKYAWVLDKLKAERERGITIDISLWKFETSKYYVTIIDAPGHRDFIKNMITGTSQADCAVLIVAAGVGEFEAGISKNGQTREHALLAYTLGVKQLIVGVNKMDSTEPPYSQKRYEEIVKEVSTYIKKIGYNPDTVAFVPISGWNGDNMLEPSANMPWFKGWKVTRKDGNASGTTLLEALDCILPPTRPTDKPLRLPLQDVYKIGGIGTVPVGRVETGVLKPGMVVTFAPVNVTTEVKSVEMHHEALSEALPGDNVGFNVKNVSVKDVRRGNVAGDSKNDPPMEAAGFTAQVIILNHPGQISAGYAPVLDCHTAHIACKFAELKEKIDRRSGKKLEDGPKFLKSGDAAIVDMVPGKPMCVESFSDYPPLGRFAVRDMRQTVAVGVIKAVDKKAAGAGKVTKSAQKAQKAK

[2] = biological target: Actin, alpha skeletal muscle (human, UniProt P68133 3-377); assay: PIF-agarose affinity extraction, liver lysate column of Table 4
[3] = biological target: T2, 14-3-3 protein zeta/delta (human, UniProt P63104 1-245); assay: as above
T2 sequence (looked up): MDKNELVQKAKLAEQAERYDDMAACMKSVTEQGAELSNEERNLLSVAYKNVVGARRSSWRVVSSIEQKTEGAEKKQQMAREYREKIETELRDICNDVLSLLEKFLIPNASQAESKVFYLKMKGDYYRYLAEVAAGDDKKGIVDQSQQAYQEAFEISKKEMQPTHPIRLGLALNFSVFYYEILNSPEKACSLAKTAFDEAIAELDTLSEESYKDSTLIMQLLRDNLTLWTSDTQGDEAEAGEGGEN

[4] = biological target: Nucleolin (human, UniProt P19338 2-710); assay: as above
[5] = biological target: Cofilin-1 (human, UniProt P23528 2-166); assay: as above
[6] = biological target: T3, Isoform C of Lamin-A/C (human, UniProt P02545-2 1-572); assay: as above
T3 sequence (looked up): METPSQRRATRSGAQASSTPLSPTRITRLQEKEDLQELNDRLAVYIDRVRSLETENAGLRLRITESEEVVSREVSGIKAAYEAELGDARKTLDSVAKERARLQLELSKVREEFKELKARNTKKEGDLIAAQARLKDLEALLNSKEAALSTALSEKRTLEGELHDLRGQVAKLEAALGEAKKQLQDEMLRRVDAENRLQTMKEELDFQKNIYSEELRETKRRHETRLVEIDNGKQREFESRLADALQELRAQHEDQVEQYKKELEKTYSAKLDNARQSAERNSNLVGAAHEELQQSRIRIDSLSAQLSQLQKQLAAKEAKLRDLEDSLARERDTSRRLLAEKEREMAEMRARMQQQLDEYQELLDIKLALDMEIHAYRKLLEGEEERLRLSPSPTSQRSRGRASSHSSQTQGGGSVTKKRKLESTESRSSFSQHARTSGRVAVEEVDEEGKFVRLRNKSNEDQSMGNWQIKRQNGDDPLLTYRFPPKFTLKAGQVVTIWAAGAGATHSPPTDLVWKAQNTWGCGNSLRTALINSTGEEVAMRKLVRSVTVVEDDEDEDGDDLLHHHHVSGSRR

[7] = biological target: Acidic leucine-rich nuclear phosphoprotein 32 family Member A (human, UniProt P39687 1-249); assay: as above
[8] = biological target: T4, 14-3-3 protein beta/alpha (human, UniProt P31946 1-246); assay: as above
T4 sequence (looked up): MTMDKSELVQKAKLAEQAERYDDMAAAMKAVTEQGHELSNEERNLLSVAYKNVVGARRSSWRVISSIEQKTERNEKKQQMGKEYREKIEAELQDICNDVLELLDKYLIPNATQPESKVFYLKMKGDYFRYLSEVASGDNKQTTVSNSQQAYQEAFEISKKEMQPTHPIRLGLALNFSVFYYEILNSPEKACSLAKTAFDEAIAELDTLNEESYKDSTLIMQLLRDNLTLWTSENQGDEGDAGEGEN

[9] = biological target: ATP synthase subunit beta, mitochondrial (human, UniProt P06576 48-529); assay: as above
[10] = biological target: T5, D-3-phosphoglycerate dehydrogenase (human, UniProt O43175 2-533); assay: as above
T5 sequence (looked up): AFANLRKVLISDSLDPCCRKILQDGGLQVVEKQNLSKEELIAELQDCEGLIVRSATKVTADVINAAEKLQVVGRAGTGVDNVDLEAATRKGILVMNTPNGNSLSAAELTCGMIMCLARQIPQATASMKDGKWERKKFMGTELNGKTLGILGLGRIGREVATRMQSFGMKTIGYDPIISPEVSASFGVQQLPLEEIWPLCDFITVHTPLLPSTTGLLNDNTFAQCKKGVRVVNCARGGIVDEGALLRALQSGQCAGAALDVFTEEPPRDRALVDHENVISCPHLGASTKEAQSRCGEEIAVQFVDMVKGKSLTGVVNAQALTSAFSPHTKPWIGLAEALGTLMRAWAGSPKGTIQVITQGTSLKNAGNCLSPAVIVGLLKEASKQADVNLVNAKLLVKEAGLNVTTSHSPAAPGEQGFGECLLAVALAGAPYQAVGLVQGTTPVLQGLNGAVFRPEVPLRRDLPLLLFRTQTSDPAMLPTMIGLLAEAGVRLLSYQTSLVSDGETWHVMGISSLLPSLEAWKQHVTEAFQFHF

[11] = biological target: T6, Serine/arginine-rich-splicing factor 2 (human, UniProt Q01130 2-221); assay: as above
T6 sequence (looked up): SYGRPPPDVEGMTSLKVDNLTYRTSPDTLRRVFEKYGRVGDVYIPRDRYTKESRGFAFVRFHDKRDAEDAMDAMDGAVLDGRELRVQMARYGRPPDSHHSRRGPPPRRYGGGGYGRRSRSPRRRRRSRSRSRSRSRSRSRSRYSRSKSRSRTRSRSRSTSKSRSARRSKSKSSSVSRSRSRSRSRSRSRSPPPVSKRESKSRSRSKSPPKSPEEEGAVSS

[12] = biological target: T7, 14-3-3 protein gamma (human, UniProt P61981 1-247); assay: as above
T7 sequence (looked up): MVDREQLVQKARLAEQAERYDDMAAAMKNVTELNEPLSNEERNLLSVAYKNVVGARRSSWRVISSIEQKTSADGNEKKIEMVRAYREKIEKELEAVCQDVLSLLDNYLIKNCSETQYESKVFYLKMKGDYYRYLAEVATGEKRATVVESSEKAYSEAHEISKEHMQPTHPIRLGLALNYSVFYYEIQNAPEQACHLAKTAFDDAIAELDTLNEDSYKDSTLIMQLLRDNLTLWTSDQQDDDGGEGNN

[13] = biological target: T8, Cytochrome P450 26A1 (human, UniProt O43174 1-497); assay: as above
T8 sequence (looked up): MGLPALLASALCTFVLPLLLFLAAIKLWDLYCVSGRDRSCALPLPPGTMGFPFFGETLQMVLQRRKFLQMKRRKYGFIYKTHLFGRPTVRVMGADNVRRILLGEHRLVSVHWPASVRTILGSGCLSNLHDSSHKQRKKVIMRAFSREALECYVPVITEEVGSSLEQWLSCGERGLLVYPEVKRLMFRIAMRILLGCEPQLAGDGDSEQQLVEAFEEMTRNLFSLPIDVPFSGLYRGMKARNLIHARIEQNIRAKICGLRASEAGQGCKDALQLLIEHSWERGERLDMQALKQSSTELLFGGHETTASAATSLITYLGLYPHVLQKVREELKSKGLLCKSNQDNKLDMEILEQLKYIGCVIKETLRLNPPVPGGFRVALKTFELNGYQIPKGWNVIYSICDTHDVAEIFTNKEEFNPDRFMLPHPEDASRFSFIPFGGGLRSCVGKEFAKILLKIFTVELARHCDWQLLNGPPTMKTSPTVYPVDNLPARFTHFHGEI

[14] = biological target: Isoform 2 of Tropomyosin alpha-4 chain (human, UniProt P67936-2 1-284); assay: as above
[15] = biological target: T9, 14-3-3 protein theta (human, UniProt P27348 1-245); assay: as above
T9 sequence (looked up): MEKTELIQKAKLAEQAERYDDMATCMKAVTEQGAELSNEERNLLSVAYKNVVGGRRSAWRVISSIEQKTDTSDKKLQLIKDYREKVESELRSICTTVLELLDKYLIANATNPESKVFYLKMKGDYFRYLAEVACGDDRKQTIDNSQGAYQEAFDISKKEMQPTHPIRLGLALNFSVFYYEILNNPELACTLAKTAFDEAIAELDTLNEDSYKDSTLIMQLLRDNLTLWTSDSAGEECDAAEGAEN

[16] = biological target: Eukaryotic initiation factor 4A-I (human, UniProt P60842 2-406); assay: as above
[17] = biological target: T10, PRDX4 (human, UniProt Q13162 38-271); assay: as above
T10 sequence (looked up): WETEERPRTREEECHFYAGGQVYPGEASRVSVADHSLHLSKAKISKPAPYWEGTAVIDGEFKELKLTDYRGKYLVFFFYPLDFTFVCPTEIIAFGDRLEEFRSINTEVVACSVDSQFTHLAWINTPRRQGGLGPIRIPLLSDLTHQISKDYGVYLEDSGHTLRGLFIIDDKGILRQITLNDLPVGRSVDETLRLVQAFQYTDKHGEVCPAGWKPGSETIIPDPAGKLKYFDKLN

[18] = biological target: Annexin A2 (human, UniProt P07355 2-339); assay: as above
[19] = biological target: Alpha-actinin-1 (human, UniProt P12814 1-892); assay: as above
[20] = biological target: Isoform 2 of Tropomyosin beta chain (human, UniProt P07951-2 1-284); assay: as above
[21] = biological target: 40S ribosomal protein S3a (human, UniProt P61247 2-264); assay: as above
[22] = biological target: Isoform 2 of Heat shock protein HSP 90-alpha (human, UniProt P07900-2 1-854, limits assumed); assay: as above
[23] = biological target: T11, 14-3-3 protein eta (human, UniProt Q04917 2-246); assay: as above
T11 sequence (looked up): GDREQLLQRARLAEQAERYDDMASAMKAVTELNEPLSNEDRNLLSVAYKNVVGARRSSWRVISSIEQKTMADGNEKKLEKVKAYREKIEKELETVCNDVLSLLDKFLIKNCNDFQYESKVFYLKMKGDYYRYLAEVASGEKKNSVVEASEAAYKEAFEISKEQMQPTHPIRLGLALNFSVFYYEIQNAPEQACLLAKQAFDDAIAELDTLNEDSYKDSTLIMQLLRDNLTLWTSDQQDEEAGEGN

[24] = biological target: T12, Thioredoxin (human, UniProt P10599 2-105); assay: as above
T12 sequence (looked up): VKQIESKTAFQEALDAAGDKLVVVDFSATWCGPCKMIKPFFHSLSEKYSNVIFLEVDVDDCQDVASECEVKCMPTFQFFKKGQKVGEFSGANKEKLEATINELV

[25] = biological target: Isoform 2 of Tropomyosin alpha-3 chain (human, UniProt P06753-2 2-248); assay: as above
[26] = biological target: Isoform 2 of Protein SET (human, UniProt Q01105-2 2-277); assay: as above
[27] = biological target: Serine/arginine-rich-splicing factor 1 (human, UniProt Q07955 2-248); assay: as above

Measured: binding result

B1: sPIF-1(15) (peptide)
peptide: MVRIKPGSANKPSDD
modifications: also: coupled to agarose support
notes: also called synthetic preimplantation factor
binds: all assays above
